Results reported in FireProtDB (doi:10.1021/bi5005975).

B1: H56V, Q9NAV8 (parent)
chain: MGFKQDIATIRGDLRTYAQDIFLAFLNKYPDERRYFKNYVGKSDQELKSMAKFGDHTEKVFNLMMEVADRATDCVPLASDANTLVQMKQHSSLTTGNFEKLFVALVEYMRASGQSFDSQSWDRFGKNLVSALSSAGMK

Variants of: B1
Details: Amphitrite ornata; pH 7; 20 °C; Urea; UV?visible spectrophotometer; potassium phosphate 100 mM; transition: 2; reversible: yes; structure 1EW6; whole UniProt chain shown

Variant	ddG of mutation (higher = less stable) [kcal/mol]	denaturant midpoint (higher = more stable) [M]	unfolding free energy [kcal/mol]
MGFKQDIATIRGDLRTYAQDIFLAFLNKYPDERRYFKNYVGKSDQELKSMAKFGDVTEKVFNLMMEVADRATDCVPLASDANTLVQMKQHSSLTTGNFEKLFVALVEYMRASGQSFDSQSWDRFGKNLVSALSSAGMK [H56V]	-5.1	5.35	7.52

Same assay, conditions: Amphitrite ornata; pH 7; Thermal; UV?visible spectrophotometer; potassium phosphate 100 mM; transition: 2; reversible: yes; structure 1EW6; whole UniProt chain shown

Variant	Tm [°C]	change of melting temperature, mutant - wild type (higher = more stable) [°C]
MGFKQDIATIRGDLRTYAQDIFLAFLNKYPDERRYFKNYVGKSDQELKSMAKFGDVTEKVFNLMMEVADRATDCVPLASDANTLVQMKQHSSLTTGNFEKLFVALVEYMRASGQSFDSQSWDRFGKNLVSALSSAGMK [H56V]	61	7
